This series can be described thus: protein stability index of a GFP-peptide fusion (GPS, HEK-293T) (PSI 1-6); higher = more stable. The settings on record: c terminus: a fixed tail appended.

± gives the standard deviation.
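Note: 24-mer peptide tiles fused after GFP, lentivirally expressed, FACS-sorted into six equal bins by GFP/DsRed ratio, decoded by Illumina sequencing, PSI is the read-weighted mean bin number.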

In the case of GVIAAIVQLHNGTKYKKFPHWLDK [STEAP1], the protein stability index is, setting by setting: (treatment: DMSO) 2.6 ± 0.31; (treatment: MLN4924 1 uM, 8 h) 2.39 ± 0.63.
The matching figures for GVSPADMYRWKLSSHEPCSATCTT [ADAMTSL2]: 2.98 ± 0.33 and 3.37 ± 0.63.
In the case of GWSLGRWTHDGIDINNNFPDLNTL [CPXM2], the protein stability index turned out to be 2.01 ± 0.085 (treatment: DMSO) and 2.34 ± 0.091 (treatment: MLN4924 1 uM, 8 h).
For the sequence GYSPNGRDANGWTLLHFSAARGKE [ASB7], the protein stability index worked out at 2.91 ± 0.47 (treatment: DMSO) and 2.94 ± 0.19 (treatment: MLN4924 1 uM, 8 h).
The matching figures for HAPTIHFNYRYFEVEEADGNKQWW [CPOX]: 2.66 ± 0.38 and 2.7 ± 0.29.
As for HCRKCGKAVCGKCSSKRSSIPLMG [WDFY2], the protein stability index runs as follows: (treatment: DMSO) 3.94 ± 0.21; (treatment: MLN4924 1 uM, 8 h) 3.93 ± 0.17.
Take HERGLKLHQTIYNQACKLLSDDYE [INTS4]: the protein stability index was 3.18 ± 0.32 (treatment: DMSO) and 3.47 ± 0.47 (treatment: MLN4924 1 uM, 8 h).
The matching figures for HGSGGSGYPAAPPAVPFAPHFLQG [TBX6]: 2.94 ± 0.3 and 3.06 ± 0.31.
The matching figures for HHSFPYDYSASEYRWHINFTTFFI [SCD]: 3.06 ± 0.5 and 2.86 ± 0.41.
The matching figures for HIGHVGWDPNTGFDLNNLDPELKN [WASL]: 4.42 ± 0.24 and 4.47 ± 0.32.
As to HILKARKVLTEPEVRYYLRQIVSG [PLK2], the protein stability index came to 2.17 ± 0.53 (treatment: DMSO) and 2.33 ± 0.43 (treatment: MLN4924 1 uM, 8 h).
In the case of HLEKKGPQVRDWSHYFKIIEDLRA [KRT18], the protein stability index (treatment: DMSO) is 2.41 ± 0.13 and the protein stability index (treatment: MLN4924 1 uM, 8 h) was 2.69 ± 0.14.
The matching figures for HLQHKLICTRKPEEIRGGGLLKYC [TENT5D]: 2.21 ± 0.39 and 2.88 ± 0.095.
The matching figures for HNIPLETIIPILQHLKYKEHPEAL [INTS3]: 2.51 ± 0.31 and 2.55 ± 0.38.
The matching figures for HNQKVHMHMVDLMSSIICEGDTVS [PDS5B]: 2.46 ± 0.17 and 2.64 ± 0.26.
As for HQAQLISKIPHILKEMYDADLLEE [EIF5], the protein stability index runs as follows: (treatment: DMSO) 2.94 ± 0.24; (treatment: MLN4924 1 uM, 8 h) 3.27 ± 0.59.
The matching figures for HSGFEDELSEVLENQSSQAELKEA [CHGA]: 5.5 ± 0.29 and 5.27 ± 0.33.
The matching figures for HSIIISLVEAGAHTDMTNKQNKTP [FEM1B]: 2.46 ± 0.49 and 2.63 ± 0.32.
For HSKGHKSSRQEKRPLCAQGDWHSP [ELOA2], the protein stability index by setting is: (treatment: DMSO) 3.93 ± 0.28; (treatment: MLN4924 1 uM, 8 h) 4.23 ± 0.37.
The matching figures for HSLEYIDLMETTQYMNEGELRVLA [HDAC6]: 2.79 ± 0.4 and 3.04 ± 0.34.
Take HTETKTITYESSQVDPGTDLEPGV [EPB41L3]: the protein stability index is, setting by setting: (treatment: DMSO) 5.48 ± 0.17; (treatment: MLN4924 1 uM, 8 h) 5.37 ± 0.25.
Sequence HTLAVMNDRLYAIGGNHLKGFSHL [KLHL14] came in with a protein stability index (treatment: DMSO) of 2.22 ± 0.12 and a protein stability index (treatment: MLN4924 1 uM, 8 h) of 2.18 ± 0.11.
The matching figures for HVASLADDKMVRFWRIDEDYPVQV [WSB1]: 2.4 ± 0.23 and 3.02 ± 0.51.
Consider IACYVMKHYRFTHAEIIAWIRICR [CDC14A], for which the protein stability index runs as follows: (treatment: DMSO) 2.37 ± 0.72; (treatment: MLN4924 1 uM, 8 h) 2.24 ± 0.53.
For IAHDGQRIYVLGGGTSWTAYSLNK [KLHDC10], the protein stability index runs as follows: (treatment: DMSO) 2.13 ± 0.38; (treatment: MLN4924 1 uM, 8 h) 2.1 ± 0.066.
IAQYALLGYFIRSWRTLAILVNLQ [SLC22A15] had a protein stability index (treatment: DMSO) of 3.07 ± 0.51 and a protein stability index (treatment: MLN4924 1 uM, 8 h) of 2.78 ± 0.21.
Sequence ICDKHWTAKNSRVVCGMFGFPGER [LOXL2] had a protein stability index (treatment: DMSO) of 2.42 ± 0.34 and a protein stability index (treatment: MLN4924 1 uM, 8 h) of 2.42 ± 0.35.
The matching figures for ICEDSFDGRSLSKLNLCEDGPCHK [SCARA5]: 4.55 ± 0.15 and 4.57 ± 0.16.
Turning to ICTRKPEEIRGGGLLKYCSLLVHG [TENT5D], the protein stability index came to 2.24 ± 0.43 (treatment: DMSO) and 2.03 ± 0.3 (treatment: MLN4924 1 uM, 8 h).
The matching figures for IDGQGRPRTSQSEETRVWHRRDGK [CAMK2B]: 5.2 ± 0.2 and 5.24 ± 0.11.
The matching figures for IDIIPNPQERTLTLVDTGIGMTKA [HSP90AB1]: 3.55 ± 0.19 and 3.43 ± 0.51.
The matching figures for IDKNRRKSCQACRLRKCYEVGMVK [ESR2]: 2.75 ± 0.34 and 3.08 ± 0.17.
Regarding IDPETKKHIPYREHKSLTGTARYM [CSNK1G3], the protein stability index by setting is: (treatment: DMSO) 3.38 ± 0.45; (treatment: MLN4924 1 uM, 8 h) 3.72 ± 0.18.
IDSGSPAEEAGLKNNDLVVAVNGE [PDZK1] came in with a protein stability index (treatment: DMSO) of 5.45 ± 0.48 and a protein stability index (treatment: MLN4924 1 uM, 8 h) of 5.58 ± 0.2.
On to IEANFPRRVLPCIPSEEWPNPPTL [FAF2], for which the protein stability index turned out to be 2.9 ± 0.28 (treatment: DMSO) and 3.05 ± 0.22 (treatment: MLN4924 1 uM, 8 h).
The matching figures for IEILPNVCYTACATLKGPDSHYGT [BTBD1]: 2.26 ± 0.19 and 2.31 ± 0.2.
Regarding IFGDLCGNMANLSLHDHDGSSGAS [DVL3], the protein stability index was determined as 3.9 ± 0.45 (treatment: DMSO) and 4.27 ± 0.17 (treatment: MLN4924 1 uM, 8 h).
On to IFSAPNYCYRCGNQAAIMELDDTL [PPP2CA], for which the protein stability index by setting is: (treatment: DMSO) 2.37 ± 0.6; (treatment: MLN4924 1 uM, 8 h) 2.29 ± 0.4.
The matching figures for IGDSRPPSFHPHAGGGSQENLDND [DVL3]: 5.56 ± 0.18 and 5.41 ± 0.1.
IGLRQHHCRKCGKAVCGKCSSKRS [WDFY2] gave a protein stability index (treatment: DMSO) of 4.08 ± 0.17 and a protein stability index (treatment: MLN4924 1 uM, 8 h) of 4.15 ± 0.26.
For IHKASATIIEPAGESDNPLRFTSG [INTS4], the protein stability index reads like this: (treatment: DMSO) 4.03 ± 0.33; (treatment: MLN4924 1 uM, 8 h) 4.15 ± 0.25.
IHLSAPCIYSEVMEALDLQPGLSF [PCMTD2] registered a protein stability index (treatment: DMSO) of 2.23 ± 0.23 and a protein stability index (treatment: MLN4924 1 uM, 8 h) of 1.96 ± 0.41.
The matching figures for IIRNVGKYREAARLEINVLKKIKE [CLK3]: 2.68 ± 0.51 and 2.33 ± 0.27.
As to IKNDKYGPWLEWEIMLQYCFPRLD [PRIM1], the protein stability index (treatment: MLN4924 1 uM, 8 h) is 3 ± 1.
With IKPNEILPPEKGREVAKELGIPYY [RHOBTB2], the protein stability index is, setting by setting: (treatment: DMSO) 3.73 ± 0.14; (treatment: MLN4924 1 uM, 8 h) 3.79 ± 0.12.
The matching figures for IKQDINSLNKQIAQLQDFVRAKGS [STX5]: 3.25 ± 0.12 and 3.38 ± 0.28.
In turn, ILGVIGLFTIPLLYRQHQAQIDQY [RTN2] yielded a protein stability index (treatment: DMSO) of 3.28 ± 0.71 and a protein stability index (treatment: MLN4924 1 uM, 8 h) of 3.1 ± 0.84.
Take ILLVGYPPFWDEDQHRLYKQIKAG [CAMK2A]: the protein stability index worked out at 2.29 ± 0.32 (treatment: DMSO) and 2.24 ± 0.19 (treatment: MLN4924 1 uM, 8 h).
The matching figures for ILNSVEKYDPHTGHWTNVTPMATK [KLHL12]: 3.15 ± 0.29 and 3.43 ± 0.44.
The matching figures for ILRCWKCRKCIASSGCFMEYLENQ [RNF180]: 2.36 ± 0.4 and 2.43 ± 0.46.
The matching figures for IMVGFILYCSTPTRTAEPAESSVP [SLC35F2]: 3.15 ± 0.68 and 2.62 ± 1.
As for IPGLPGLRGLPGERGTPGLPGPKG [SCARA5], the protein stability index turned out to be 4.34 ± 0.41 (treatment: DMSO) and 4.42 ± 0.22 (treatment: MLN4924 1 uM, 8 h).
The matching figures for IPHTHLLATLDPLALDREPPPHLL [WDR88]: 3.23 ± 0.12 and 3.26 ± 0.14.
As for IQDGTIHLYIYSIHSIPKGTEITI [KMT2E], the protein stability index (treatment: DMSO) was 2.48 ± 0.43 and the protein stability index (treatment: MLN4924 1 uM, 8 h) came to 3.24 ± 0.15.
Take IQQELIKQEQSIISEYEKSLQFDE [RPAIN]: the protein stability index (treatment: DMSO) came to 4.64 ± 0.12 and the protein stability index (treatment: MLN4924 1 uM, 8 h) is 4.67 ± 0.079.
The matching figures for IQSKLGIVSLLLGTIHALIFAWNK [STEAP1]: 2.35 ± 0.31 and 2.22 ± 0.31.
IRDQMQQQLNDYEQLLDVKLALDM [LMNB1]: the protein stability index is 3.4 ± 0.25 (treatment: DMSO) and 3.48 ± 0.36 (treatment: MLN4924 1 uM, 8 h).
The matching figures for IRLMQRCWQGDPRVRPTFQEITSE [RIPK4]: 2.798 ± 0.002 and 2.78 ± 0.45.
Regarding ISEEIQMSTKESDFLCLLGVSYTF [MIA2], the protein stability index (treatment: DMSO) was 2.4 ± 0.45 and the protein stability index (treatment: MLN4924 1 uM, 8 h) amounted to 2.76 ± 0.92.
ISHWHPNITINIVDDHTPWVKGSV [CLPTM1] had a protein stability index (treatment: DMSO) of 2.37 ± 0.22 and a protein stability index (treatment: MLN4924 1 uM, 8 h) of 2.03 ± 0.34.
The matching figures for IVIWGVLTQKKPFADEKNILHIMV [RIPK4]: 3.25 ± 0.88 and 2.92 ± 0.67.
As for IVPNSNGVITTTPTPPGQYFYPRG [JUNB], the protein stability index by setting is: (treatment: DMSO) 3.16 ± 0.27; (treatment: MLN4924 1 uM, 8 h) 3.35 ± 0.2.
The matching figures for KAALAALCPGDLIQAINGESTELM [PDLIM4]: 3.495 ± 0.025 and 3.77 ± 0.21.
For the sequence KAKANGITMYAVGVGKAIEEELQE [MATN2], the protein stability index by setting is: (treatment: DMSO) 3.83 ± 0.33; (treatment: MLN4924 1 uM, 8 h) 4.12 ± 0.32.
The matching figures for KAKKNKDKYVGVSSDSVGGFRYSE [CLINT1]: 4.53 ± 0.19 and 4.58 ± 0.24.
The matching figures for KARDWFQGHLRRLRSRYSVASFKF [MYORG]: 2.21 ± 0.33 and 2.15 ± 0.29.
The matching figures for KAVLENALRNFACLTTGDVIAINY [UFD1]: 2.94 ± 1.7 and 2.3 ± 1.
For KCEQPFFWNIKQMWDTKTLGLRQH [WDFY1], the protein stability index (treatment: DMSO) is 2.12 ± 0.17 and the protein stability index (treatment: MLN4924 1 uM, 8 h) was 2.38 ± 0.27.
As to KCGDLECEALINRVSAMRDYRGPD [MIA2], the protein stability index by setting is: (treatment: DMSO) 3.25 ± 0.63; (treatment: MLN4924 1 uM, 8 h) 3.21 ± 0.076.
The matching figures for KDGVADSTVISSMPCLLMELRRDS [C18orf25]: 3.25 ± 0.15 and 3.42 ± 0.35.
For KEMTQKLEALHLEALCEEDLLLWI [DENND6A], the protein stability index is 2.23 ± 0.28 (treatment: DMSO) and 2.26 ± 0.32 (treatment: MLN4924 1 uM, 8 h).
The matching figures for KETEERTDGERVAEVAPEERENVA [SDE2]: 5.64 ± 0.17 and 5.33 ± 0.42.
The matching figures for KGDRGLPLEGSAKGKVQAELSQPL [RBBP5]: 4.82 ± 0.33 and 4.75 ± 0.11.

The values above are taken from the supplement of paper PMC10567573.
